In paper PMC10182070, “Ligand dependent interaction between PC-TP and PPARδ mitigates diet-induced hepatic steatosis in male mice” (Nature Communications, 2023):

T1: purified PPARδ ligand-binding domain (LBD), Cy5-labelled (human, Cy5 fluorophore (NHS) on lysine amines)
T1 chain: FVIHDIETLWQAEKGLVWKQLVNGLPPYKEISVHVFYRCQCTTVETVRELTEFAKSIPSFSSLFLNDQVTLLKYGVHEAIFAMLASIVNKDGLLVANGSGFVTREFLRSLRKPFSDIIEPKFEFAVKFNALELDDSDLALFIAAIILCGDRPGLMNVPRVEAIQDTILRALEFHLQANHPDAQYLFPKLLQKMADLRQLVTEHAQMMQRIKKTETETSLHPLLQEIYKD

T2: purified full-length PPARδ, Cy5-labelled (human, UniProt Q03181 1-441, Cy5 fluorophore (NHS) on lysine amines)
T2 construct: Full-length PPARδ in PSMT3 vector; also called FL-PPARδ; full-length (FL) PPARδ; source: E. coli BL21 DE3, purified (IMAC, Capto S and Capto Q, Superdex 75 SEC)
T2 sequence (looked up): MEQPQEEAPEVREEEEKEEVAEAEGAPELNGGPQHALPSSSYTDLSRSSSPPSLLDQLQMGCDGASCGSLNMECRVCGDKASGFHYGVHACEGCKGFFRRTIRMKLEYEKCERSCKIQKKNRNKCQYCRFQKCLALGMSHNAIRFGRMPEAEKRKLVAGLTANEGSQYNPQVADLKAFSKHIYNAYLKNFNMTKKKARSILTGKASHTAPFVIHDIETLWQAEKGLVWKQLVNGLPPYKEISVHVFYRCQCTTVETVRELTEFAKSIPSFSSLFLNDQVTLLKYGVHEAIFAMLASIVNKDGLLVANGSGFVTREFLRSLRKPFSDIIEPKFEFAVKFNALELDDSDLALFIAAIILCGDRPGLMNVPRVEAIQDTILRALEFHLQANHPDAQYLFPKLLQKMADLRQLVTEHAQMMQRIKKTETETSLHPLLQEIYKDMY

T3: full-length PPARδ, split nano-luciferase (nano-PCA) fusion (human, UniProt Q03181 1-441)
T3 construct: wild-type human PPARδ, printed as residues 1-470; The clones of the HEK293T screen are not described; also called FL-PPARδ; intact PPARδ; source: HEK293T (screen) and Huh7, transfected, in cells
T3 sequence (looked up): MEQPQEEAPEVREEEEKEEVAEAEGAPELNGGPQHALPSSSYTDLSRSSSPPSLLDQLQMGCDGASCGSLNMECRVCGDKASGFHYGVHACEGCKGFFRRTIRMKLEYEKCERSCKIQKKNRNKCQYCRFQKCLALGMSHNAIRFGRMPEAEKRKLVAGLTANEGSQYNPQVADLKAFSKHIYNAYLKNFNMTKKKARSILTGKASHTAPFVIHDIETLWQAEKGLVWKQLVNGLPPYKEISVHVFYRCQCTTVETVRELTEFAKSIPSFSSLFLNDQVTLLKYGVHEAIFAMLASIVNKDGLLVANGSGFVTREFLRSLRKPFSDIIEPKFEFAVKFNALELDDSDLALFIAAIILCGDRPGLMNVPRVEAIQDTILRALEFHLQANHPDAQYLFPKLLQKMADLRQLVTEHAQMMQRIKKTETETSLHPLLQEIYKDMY


Assays:
[1] = biological target: T1, purified PPARδ ligand-binding domain …
[2] = biological target: T2, purified full-length PPARδ, Cy5-labelled; test: temperature related intensity change (TRIC); 50 nM Cy5-labelled FL-PPARδ or PPARδ LBD with LTPs (10 µM-610 pM), overnight at 4 °C; 20 mM Hepes pH 8.3, 200 mM NaCl, 5% glycerol, 0.05% tween-20, 0.5 mM TCEP; Dianthus NT.23 Pico; settings: both partners purified
[3] = biological target: T3, full-length PPARδ, split …; test: split reporter (BiFC, NanoBiT); nano-PCA in transfected Huh7 cells (100 ng/well of each fusion); fresh culture media or DMEM F-12 with 0.5% serum (mutant panel in 0.5% serum); signal normalized to the highest negative control; settings: partners not purified

Row | Kd [1] | Kd [2] | percent decrease of the interaction relative to wild-type PC-TP [3] | Binder
1 | 4.23 µM | ~2400 nM |  | purified PC-TP (natural protein, human, PC-TP coding region in pMCSG7; the structure of PC-TP solved here is PDB 7U9D; 0.01% soy lecithin was added to the cultures at induction; also called LTP; source: E. coli BL21 DE3, purified (IMAC, Superdex 75 SEC)) MELAAGSFSEEQFWEACAELQQPALAGADWQLLVETSGISIYRLLDKKTGLYEYKVFGVLEDCSPTLLADIYMDSDYRKQWDQYVKELYEQECNGETVVYWEVKYPFPMSNRDYVYLRQRRDLDMEGRKIHVILARSTSMPQLGERSGVIRVKQYKQSLAIESDGKKGSKVFMYYFDNPGGQIPSWLINWAAKNGVPNFLKDMARACQNYLKKT
2 |  |  | ~45% | PC-TP R120H, split nano-luciferase (nano-PCA) fusion (natural protein, human, UniProt Q9UKL6 1-214, looked up, source: Huh7, transfected, in cells) MELAAGSFSEEQFWEACAELQQPALAGADWQLLVETSGISIYRLLDKKTGLYEYKVFGVLEDCSPTLLADIYMDSDYRKQWDQYVKELYEQECNGETVVYWEVKYPFPMSNRDYVYLRQHRDLDMEGRKIHVILARSTSMPQLGERSGVIRVKQYKQSLAIESDGKKGSKVFMYYFDNPGGQIPSWLINWAAKNGVPNFLKDMARACQNYLKKT
3 |  |  | ~45% | PC-TP R78E, split nano-luciferase (nano-PCA) fusion (natural protein, human, UniProt Q9UKL6 1-214, looked up, source: Huh7, transfected, in cells) MELAAGSFSEEQFWEACAELQQPALAGADWQLLVETSGISIYRLLDKKTGLYEYKVFGVLEDCSPTLLADIYMDSDYEKQWDQYVKELYEQECNGETVVYWEVKYPFPMSNRDYVYLRQRRDLDMEGRKIHVILARSTSMPQLGERSGVIRVKQYKQSLAIESDGKKGSKVFMYYFDNPGGQIPSWLINWAAKNGVPNFLKDMARACQNYLKKT
4 |  |  | ~45% | PC-TP Y114R, split nano-luciferase (nano-PCA) fusion (natural protein, human, UniProt Q9UKL6 1-214, looked up, source: Huh7, transfected, in cells) MELAAGSFSEEQFWEACAELQQPALAGADWQLLVETSGISIYRLLDKKTGLYEYKVFGVLEDCSPTLLADIYMDSDYRKQWDQYVKELYEQECNGETVVYWEVKYPFPMSNRDRVYLRQRRDLDMEGRKIHVILARSTSMPQLGERSGVIRVKQYKQSLAIESDGKKGSKVFMYYFDNPGGQIPSWLINWAAKNGVPNFLKDMARACQNYLKKT
